Patent US20190160187A1 (CORNELL UNIVERSITY, published 2019)

Target: the molecule itself
Experiment: Western blot, HEK 293T-orf6 cells (self-association into a homotetramer)
Procedure: To assess ALDH2 tetramer formation from AAVrh.10hALDH2 directed expression of the human ALDH2 protein in vitro, HEK 293T cells were infected with the AAVrh.10hALDH2 vector or a control AAVrh.10-hα1 AT vector, and supernatant was harvested 72 hours later. Human ALDH2 tetramer formation in supernatant was evaluated by SDS-PAGE and Western analysis with an anti-HA antibody.

B1: human ALDH2 with C-terminal hemagglutinin (HA) tag, expressed from the AAVrh.10hALDH2 vector (enzyme)
chain: SAAATQAVPAPNQQPEVFCNQIFINNEWHDAVSRKTFPTVNPSTGEVICQVAEGDKEDVDKAVKAARAAFQLGSPWRRMDASHRGRLLNRLADLIERDRTYLAALETLDNGKPYVISYLVDLDMVLKCLRYYAGWADKYHGKTIPIDGDFFSYTRHEPVGVCGQIIPWNFPLLMQAWKLGPALATGNVVVMKVAEQTPLTALYVANLIKEAGFPPGVVNIVPGFGPTAGAAIASHEDVDKVAFTGSTEIGRVIQVAAGSSNLKRVTLELGGKSPNIIMSDADMDWAVEQAHFALFFNQGQCCCAGSRTFVQEDIYDEFVERSVARAKSRVVGNPFDSKTEQGPQVDETQFKKILGYINTGKQEGAKLLCGGGIAADRGYFIQPTVFGDVQDGMTIAKEEIFGPVMQILKFKTIEEVVGRANNSTYGLAAAVFTKDLDKANYLSQALQAGTVWVNCYDVFGAQSPFGGYKMSGSGRELGEYGLQAYTEVKTVTVKVPQKNS
notes: also called human aldehyde dehydrogenase 2; hALDH2-HA; not shown: C-terminal hemagglutinin (HA) tag
Question: Does B1 bind?
Answer: Result: binds
